According to publication PMC10245973:

Molecular target: Prunus persica WEEP protein (PpeWEEP), 6xHis-MBP-PpeWEEP-StrepTagII fusion protein (Prunus persica (peach))
Assay: SEC

Prunus persica WEEP protein (PpeWEEP), 6xHis-MBP-PpeWEEP-StrepTagII fusion protein (natural protein)
stoichiometry N: 8.7 mer
